Measurements reported in the DeepSol protein solubility set.

Experiment: soluble on expression in E. coli; label from the status in PepcDB or PDB records

Soluble on expression in E. coli, not soluble:
MGSDKIHHHHHHMNRLIRTGVLGFLVWLAGCGHAPVQEKPTPEELKQRALQSAKIHTELAGQYYHRGQYRVAIEEAEIALQKKTDYAPAYNMLGLVYMDLQEDDRAEWNFERGLGITPNDPDIRNNFGWFLCQRKPDGIEQAIGHFMAAVRDPLYETPERTYTNAGLCVLKQNDFERAQSYFQEALVIRPGYPLARLGLVELDFSRGEVKKAWAAINRYLQTYPPAPGSLWLAVRIARANGDVNAETNYAFQLQKRFPDSREARESRAGRLNHER, MGSDKIHHHHHHMNRVVVGLQWGDEGKGKVVTYLSRYHDIVARFSGGANAGHTVNYGDFKVIHHLLPSADFTKNRGIAIGSGVLLDPQVLTEELRELKEKFPDYSGEIFISESAHVVLPVHKEMDRIIDEVLKIGTTKRGIGPACADRVMRVNVRVAELGNEEKLRYFLEKNLSLKKIYGVDFDAEKMMGDLSTFYETIKDFVVSPVQLKRILEEKSVLFEGTQGVLLDLDVGTYPYVTSMNCSSSGVSAGMGFPVEVDEVLGVFKAYTTRVGEGPFPTELTGEEGEKLRKAGHEYGSTTGRPRRCGWLDLPLLRYAIEISGVDSLVMTKADVLNGFEKIKVCVRYSDGRDLVSLRDLEKKEPVYEVFDGWKSLEDKNFERFVDFIERETGRPVRYISTGEKLEDIVEV, MGSDKIHHHHHHMNSSHGTSSSGASAGAHGALPLEAQKLNGWGRTAPTTAEVLTTPDLDIIVDAVRQVAEQNDSKPDYLKRGVIARGMGRSYGDPAQNAGGLVIDMQPLNKIHSIDPDSAIVDVDGGVTLDQLMKAALPYGLWVPVLPGTRQVTIGGAIGPDIHGKNHHSAGSFGDHVVSMELLVADGRILHLEPEGTAEDPQGDLFWATVGGMGLTGIIVRARIRMTKTETAYFIADTDRTNNLEETVAFHSDGSEHNYTYSSAWFDVISPEPKLGRSTISRGSLATLAQLEELAPKLAKDPLKFNAPQLMKVPDIFPSWTLNKLTLSAVGVAYYAMGAPAKNQVKNLTQFYQPLDLIGEWNRGYGSKGFLQYQFVVPTEAVEPFKDIIRDMQKSGHYSALNVFKLFGPGNRAPLSYPMPGWNVCVDFPIRPGLGAFLDDLDKRVMEFGGRLYLAKESRTSAENFHAMYPGMEGWLKTRNEIDPTGVFASDMSRRLELS, MGSDKIHHHHHHMNTLVLPKTQHLVVFQEVIRSGSIGSAAKSLGLTQPAVSKIISDVEAYFGVELIVRKNTGVTLTEAGQVLLSWSESITREMKNMINEMNSMTCNTVVDVSFGFPSLIGFTFMSDMIHKFKEVFPKAQVSMYEAQLSSFLPALRDGRLDFAIGTLSNEMQLQDLHVEPLFESEFVLVASKSRTCTGTITLESLKDEQWVLPQTNMGYYSELLTTLQRNGISIENIVKTDSVVTIYNLVLNADFLTVIPCDMTTPFGSNQFITIPIQDTLPVARYAAVWSKNYRIKKAASVLVELAKQYSSYNGCRRRQLIEIE, MGSDKIHHHHHHMNTTHAVPSITPNNDPWEAYDDIKMFGKPTLTNIEVTTTTLCNMRCEHCAVGYTLQTKDPDALPLDLLLRRLDEIPHLRAFSITGGEPMLSKKSVESYVVPLLRYAHERGARTQINSNLTLNIERYEKILPYLDVLHISHNYGSINDFTDIGFAVMERKPSIEQREALFHRMVENAKMLTQEGVFVSAETMINKRTLPHLEKIHEQIVSMGCQRHEVHPMYPSDFASALDVASLDEIRKGIHRLLDARDKKTWMLFGTLPFYPCSDQEEDLMLLKRLYGEPNVTVRNDPDGRSRLNVNLFDGNIIVTDFGDTPPLGNIMTTSFIEAYEKWQHSEISKELSCHCPMAECLGPNILVKNTYYRGVDFHKRKAVLHK, MGSDKIHHHHHHMNTTNQTAPQGFRLNALGHAVPESQIKEIDKLRDELVLQIVTAAKEMQGHMATYKATSMRAVADFIDLSASEFGVKFGGTKGNVSLVSFDGKYKVQRSIGEHRVFDERIQAAKSKIDDCIKRWSVGSNDHIKALVELSFKVNKQGYIDINQVLSLRQLDIDDTDWRSAMDAIADSIQVMGSTPYLRVYERQDDGTYKQISLDIAKL, MGSDKIHHHHHHMNVLITGMNGTVAPVLADVFRSHHYDITAWDRSVVSTTDSAVMEAFIDRVQPDLLLHIGMGPAEFAETLARLSFERNIPFLFTSTASVYSDEQKGPHDPAIVPAATDEYGAYKRTCERLIQAVNPDAYIVRIGWQIGQAAGSNNMIDYLERHAIAGPIPASTQWYPSCAFLEDTAQTLYTIVTTYTPGLYLANGNASHSFFDIVTALNILHGSKWHITEDNSMTRDDRMTDSRVVIRPISEHLSFVH, MGSDKIHHHHHHMNYLQIARNSLAAEQNALAKLSQNLNQQFNQVVELILNCEGRLVVGGIGKSGLIGKKMVATFASTGTPSFFLHPTEAFHGDLGMLKPIDIVMLISYSGESDDVNKLIPSLKNFGNKIIALTGNLNSTLAKHADYILDISVEREACPNNLAPTTSALVTLALGDALAVSLITARNFQPADFAKFHPGGSLGRRLLCRVKDQMQVRLPKVTENTNFTDCLTVMNEGRMGVALVMENENLKGIITDGDIRRALSANGTNTLNKTAKDLMTSNPKTINYNTYLSEAENFMKEKKIHSLVVVDDQNKVIGLVEFSS, MGSDKIHHHHHHMPAISVQDVSKRFRVFAKPADRLKAAVRHRIGGLAKLVPARLLGTEGASEFHALQHVSFHVQKGETIGIIGRNGSGKSTLLQIICGTLTPSGGRVAINGRVAALLELGAGFNPEFTGRENVYMNAALLGLSKAQIEERLDAIFAFADIGGFVDQPVKTYSSGMYVRLAFAVIAHVDADVLVIDEALAVGDAFFTQKCMRFLRAFMERGTVLFVSHDTNAVVNLCTRVVWLDKGRVREIGPAKDVCDSYLEAFYEEQHCASGRSVRALERSSVVRAIAEGDMRDQRALLINASKLRNDVELFQFTADAKNFGLGGASIEHVGIEDGTGAPLNWVVGGEIVCIRIAVKALQNLERAIVGFIVRDRLGQNLFGDNTYLTTLNEPFAVAAGESFSVRFGFRMPVLPVGDYSVTVAVADGSQSDHVIHQWLHDAVLLKSHSTSVSTGLIGIPMHEIVLERDTLNEVGAAQ, MGSDKIHHHHHHMPAKTLYCATLASLNGLSDNRNATGISFIFQGGAVEEMQKVLVNEKGMAWITCEKCSHTSGIDVSRLSDRAPFIRYKCVKCDAEFDVACEFRKSYRKEVHLNGVFIQQQPREDYAGRIEILDISKTGVRFKTRVKFDFKPGYLLKLSFSLDDAKKTNINQTVEVKWVNGQLVGGEFRNQDHWTSQQLGFYFMS, MGSDKIHHHHHHMPGLPRASGSRFSRRLWSNLTWSGLLSMAVMPRHTSIARPPHGMMDPSGTTVWSYDTQGRIIGKTQVVDGASLVTSYVYDGDGRLASLTYPSGEVINYSWSNGQLTGIFRGTSLIASGITCHPFGPVKSWTLDNGQNIVRNFDLDGRITSYSLGSLAYDAASRITGISRGGISILGNSKTYGYDATDRLISFSDGTSAETYAYDASGNRTGQTINGMAYTYSVSYASNRLDAMAGPGSSLHYSYDANGSLVNDGQRSFGYDASGRLSEAVGLASYSFNGLGQRVKKNAGTVIMFVFDEGGQLIGEYGAAGNPIQETVWLDDVPLAVLRYGTTYYIHTDHLNTPPADS, MGSDKIHHHHHHMPLYLKNHSYGEYVFDWAWANAYERAGHDYYPKLLSAIPFSPVTGKRLLAQTSEQRALLVSTALAIVRKGNAGAGMSSLHCLFPLEHEAREMERAGMMLRCGVQFHWKNRPGRGYENFEDFLGGMSYSKRKKIRQERRKVQDLGIHFEWLSGNDMDEDRWNFFIDCYNNTYREHHSRPYLNLEFFLRLGKSMPENILLILALQNKKPIGVAFNIHNSHTLYGRYWGAREFVPGLHFETCYYQAIQYCIANGLSLFEGGAQGEHKLARGFLPVRTWSAHWLVHSEFAAAIEGYLERETRDIDRYIHALEESAPFRKDARESE, MGSDKIHHHHHHMPRDLPPLNALRAFTAAAKRLSFTQAAEDLGVTQAAVSHQIRGLEDWLGVALFRRRNKQVVMTEAGQVYALAIGQALDEIAEATAALVRNDPRAGMLTISTMPSFAIKWLVQRLGGFINANPDIEVRLHTTRELVNFATEGIDVAIRMTREVGDDLHADLLLEEELFPVCSPALMRGIRPLRQPSDLSQHLLLQDVGISWVSWLDPAGALDVRPARGPGYLDSALAIQACIESQGVMLGRTVMVEDDLKAGRLVEPFTLRVPSPMKYWLVCPPGHLARPGVRAFREWILAEASKWTKARSSAHGVED
